Experiments:
[1] = biological target: T1, Mouse-TrKA receptor on the surface of HEK293T-Mouse-TrKA cells (mouse, UniProt Q3UFB7 34-799); assay: flow cytometry competition on HEK293T-Mouse-TrkA cells; competitor biotinylated Mouse-NGF
T1 construct: whole, on cells; also called Mouse-TrkA protein on HEK293T-Mouse-TrkA cells
Description: Mouse-NGF was biotinylated. Mouse-NGF could bind to the extracellular region of Mouse-TrkA protein on HEK293 T-Mouse-TrkA cells, and anti-Mouse-TrkA monoclonal antibody could also bind to the extracellular region of Mouse-TrkA protein on HEK293T-Mouse-TrkA cells. A competitive experiment was designed to detect the binding of Mouse-NGF to the extracellular region of Mouse-TrkA protein on HEK293T-Mouse-TrkA cells under different concentrations (20 μg/mL, 10 μg/mL, 5 μg/mL, 2.5 μg/mL, 1.25 μg/mL, 0.625 μg/mL, 0.313 μg/mL, 0.156 μg/mL, 0.078 μg/mL, 0.039 μg/mL, 0.019 μg/mL) of test antibodies by flow cytometry, thus the inhibition effect of test antibodies on the binding of Mouse-NGF and Mouse-TrKA was investigated. In FIG. 12, the parent % value reflects the Mouse-NGF signal that binds to the extracellular region of the Mouse-TrKA protein on the HEK293T-Mouse-TrkA cell.

[2] = biological target: T2, TrkA protein on HEK-293T-TrkA cells or NIH-3T3-TrkA cells (human, UniProt P04629 33-796); assay: flow cytometry competition: antibody titrated against biotinylated NGF binding to HEK-293T-TrkA cells, % parent
T2 construct: whole, on cells; Printed only as TrkA for these cells; also called TrkA protein on the membrane of NIH-3T3-TrkA cells

[3] = biological target: T2, TrkA protein on HEK-293T-TrkA cells or …; assay: cell-based or functional assay
[4] = biological target: T2, TrkA protein on HEK-293T-TrkA cells or …; assay: flow cytometry on HEK-293T-TrKA cells
Source text: (§1) In FIG. 7, the EC₅₀ (half-binding concentration) value reflects the affinity of the antibody. The smaller the EC₅₀ value, the higher the affinity of the antibody.

Mouse-TrKA protein = biological target: T3, Mouse-TrKA protein (mouse, UniProt Q3UFB7 34-420, limits assumed); assay: ELISA, antibody titrated on Mouse-TrKA protein, OD 450
T3 construct: also called Mouse-TrKA receptor
Description: Test antibody (23E12, 21E5) samples were diluted with PBS buffer solution to 11 concentration gradients (20 μg/mL, 10 μg/mL, 5 μg/mL, 2.5 μg/mL, 1.25 μg/mL, […], 0.313 μg/mL, 0.156 μg/mL, 0.078 μg/mL, 0.039 μg/mL, 0.019 μg/mL). The binding of the test antibody to the Mouse-TrKA receptor at each concentration gradient was detected by the ELISA method, thus the binding ability of the test antibody to the Mouse-TrKA protein was detected. In FIG. 9, at a certain antibody concentration, the OD₄₅₀ value reflects the binding strength of the antibody to the protein. The larger the reading, the stronger the binding of the antibody to the protein. […] It can be seen that the test antibodies 23E12, 21E5, and Mouse-TrKA protein all have good binding ability.

[5] = biological target: T4, TRKA protein with a histidine tag (human, UniProt P04629 33-423, limits assumed); assay: BLI (Fortebio Octet RED96), His-tagged TRKA on Ni-NTA sensor, antibody 80-2.93 nM
T4 construct: it is put last here only for order; also called TRKA (50 µg/ml, 75 kDa, provided by HEC Labs); not shown: histidine tag
Description: They were added to each well of the sample plate. […] The KD value is the equilibrium dissociation constant between the antibody and its antigen, and the KD value is inversely proportional to the affinity. The KD value is related to the antibody concentration (the amount of antibody required for a particular experiment). The lower the KD value (the lower the concentration), the higher the affinity of the antibody. High-affinity antibodies are generally considered to be in the low nanomolar range (10⁻⁹).

[6] = biological target: T5, TrKA receptor protein coated in ELISA (Examples 11 and 16) (human, UniProt P04629 33-423, limits assumed); assay: ELISA plateau, antibody up to 20 µg/mL on TrKA
T5 construct: also called Human-TrKA
Description: The TrkA receptor family belongs to receptor tyrosine kinases (RTKs), including TrkA, TrkB, and TrkC, which have high homology. TrkA is a receptor tyrosine kinase of nerve growth factor (NGF) that selectively binds to NGF and is a functional receptor for NGF. In addition to the high-affinity receptor TrkA, NGF can also bind to its low-affinity receptor p75. In the test, the binding of test antibodies at different concentrations (20 μg/mL, 10 μg/mL, 5 μg/mL, 2.5 μg/mL, 1.25 μg/mL, 0.625 μg/mL, 0.313 μg/mL, 0.156 μg/mL, 0.078 μg/mL, 0.039 μg/mL, 0.019 μg/mL) to TrKA, TrKB, TrKC, and P75 respectively was detected by the ELISA method, and the specificity of the test antibody binding to the target TrKA was evaluated. In the FIG. 8, at a certain antibody concentration, the OD₄₅₀ value reflects the binding strength of the antibody to the protein. The larger the reading, the stronger the binding of the antibody to the protein. […] It can be seen that the specificity of the binding of the test antibodies to the target TrKA is very good.

[7] = biological target: T1, Mouse-TrKA receptor on the surface of …; assay: flow cytometry on HEK293T-Mouse-TrKA cells
Description: The test antibody 23E12 samples were diluted with PBS buffer to 11 concentration gradients (20 μg/mL, 10 μg/mL, 5 μg/mL, 2.5 μg/mL, 1.25 μg/mL, 0.625 μg/mL, 0.313 μg/mL, 0.156 μg/mL, 0.078 μg/mL, 0.039 μg/mL, 0.019 μg/mL), and the binding of the test antibody to the Mouse-TrKA receptor on the surface of HEK293T-Mouse-TrKA cells at each concentration gradient was detected by flow cytometry. The binding ability of the antibody to Mouse-TrKA protein was tested. In FIG. 10, the EC₅₀ (half the binding concentration) value reflects the binding capacity of the antibody. The smaller the EC₅₀ value, the stronger the binding capacity of the antibody. […] It can be seen that the test antibody 23E12 has a good binding ability with the Mouse-TrKA receptor on the surface of HEK293T-Mouse-TrKA cells.

[8] = biological target: T2, TrkA protein on HEK-293T-TrkA cells or …; assay: flow cytometry, antibody titrated on HEK-293T-TrKA cells, Parent %
Source text: as §1

[9] = biological target: T5, TrKA receptor protein coated in ELISA …; assay: competition ELISA: antibody titrated against biotinylated NGF binding to TrkA, OD450

T2 sequence (P04629 33-796): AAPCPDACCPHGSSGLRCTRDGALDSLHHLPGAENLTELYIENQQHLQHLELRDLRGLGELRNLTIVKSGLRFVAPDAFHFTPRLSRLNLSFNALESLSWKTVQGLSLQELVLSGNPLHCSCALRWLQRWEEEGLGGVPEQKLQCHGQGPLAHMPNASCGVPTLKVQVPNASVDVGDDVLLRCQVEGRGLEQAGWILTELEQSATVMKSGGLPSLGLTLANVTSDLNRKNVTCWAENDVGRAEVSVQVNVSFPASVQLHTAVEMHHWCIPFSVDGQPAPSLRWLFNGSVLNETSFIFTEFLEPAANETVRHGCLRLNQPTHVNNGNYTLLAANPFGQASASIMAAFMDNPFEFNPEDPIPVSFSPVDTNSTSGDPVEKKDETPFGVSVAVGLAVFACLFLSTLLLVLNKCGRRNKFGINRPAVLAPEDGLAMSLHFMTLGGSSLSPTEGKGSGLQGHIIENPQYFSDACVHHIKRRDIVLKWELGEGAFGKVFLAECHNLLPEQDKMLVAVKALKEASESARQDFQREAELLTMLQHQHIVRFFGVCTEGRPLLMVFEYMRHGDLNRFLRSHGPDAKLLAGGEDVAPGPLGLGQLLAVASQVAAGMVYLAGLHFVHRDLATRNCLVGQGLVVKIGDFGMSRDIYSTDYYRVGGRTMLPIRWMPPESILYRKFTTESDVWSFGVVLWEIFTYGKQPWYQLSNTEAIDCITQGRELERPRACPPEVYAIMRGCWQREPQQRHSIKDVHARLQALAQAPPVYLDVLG
T4 sequence (P04629 33-423 limits assumed): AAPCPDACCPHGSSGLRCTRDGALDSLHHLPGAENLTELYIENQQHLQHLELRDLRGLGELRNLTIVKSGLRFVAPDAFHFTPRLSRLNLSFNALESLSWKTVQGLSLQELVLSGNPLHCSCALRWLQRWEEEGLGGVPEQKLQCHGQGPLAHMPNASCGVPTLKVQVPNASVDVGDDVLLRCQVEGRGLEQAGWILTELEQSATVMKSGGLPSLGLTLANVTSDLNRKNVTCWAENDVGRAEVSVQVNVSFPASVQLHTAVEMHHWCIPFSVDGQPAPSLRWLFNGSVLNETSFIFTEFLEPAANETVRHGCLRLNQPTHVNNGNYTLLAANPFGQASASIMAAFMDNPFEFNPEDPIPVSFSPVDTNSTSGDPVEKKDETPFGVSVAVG
T5 sequence (P04629 33-423 limits assumed): as above
T1 sequence (Q3UFB7 34-799): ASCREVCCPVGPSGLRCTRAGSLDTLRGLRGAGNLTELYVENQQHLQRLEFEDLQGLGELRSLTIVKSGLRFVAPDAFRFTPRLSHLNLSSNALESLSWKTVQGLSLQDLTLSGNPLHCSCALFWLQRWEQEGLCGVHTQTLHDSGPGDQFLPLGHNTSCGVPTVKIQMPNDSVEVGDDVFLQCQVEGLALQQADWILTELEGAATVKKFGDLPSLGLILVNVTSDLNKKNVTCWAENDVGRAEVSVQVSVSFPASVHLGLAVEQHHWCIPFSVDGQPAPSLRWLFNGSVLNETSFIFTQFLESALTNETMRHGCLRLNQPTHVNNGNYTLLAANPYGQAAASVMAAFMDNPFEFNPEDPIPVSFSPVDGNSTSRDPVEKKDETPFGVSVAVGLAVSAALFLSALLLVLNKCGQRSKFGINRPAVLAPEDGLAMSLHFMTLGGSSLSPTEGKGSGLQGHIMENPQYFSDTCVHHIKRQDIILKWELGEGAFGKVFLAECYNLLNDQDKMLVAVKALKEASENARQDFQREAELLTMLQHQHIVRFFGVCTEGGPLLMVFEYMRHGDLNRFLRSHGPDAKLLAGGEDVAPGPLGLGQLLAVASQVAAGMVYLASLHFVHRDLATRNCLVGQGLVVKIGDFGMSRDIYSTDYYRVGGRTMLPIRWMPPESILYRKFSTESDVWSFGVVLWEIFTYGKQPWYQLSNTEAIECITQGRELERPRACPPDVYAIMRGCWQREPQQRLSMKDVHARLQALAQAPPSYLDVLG
T3 sequence (Q3UFB7 34-420 limits assumed): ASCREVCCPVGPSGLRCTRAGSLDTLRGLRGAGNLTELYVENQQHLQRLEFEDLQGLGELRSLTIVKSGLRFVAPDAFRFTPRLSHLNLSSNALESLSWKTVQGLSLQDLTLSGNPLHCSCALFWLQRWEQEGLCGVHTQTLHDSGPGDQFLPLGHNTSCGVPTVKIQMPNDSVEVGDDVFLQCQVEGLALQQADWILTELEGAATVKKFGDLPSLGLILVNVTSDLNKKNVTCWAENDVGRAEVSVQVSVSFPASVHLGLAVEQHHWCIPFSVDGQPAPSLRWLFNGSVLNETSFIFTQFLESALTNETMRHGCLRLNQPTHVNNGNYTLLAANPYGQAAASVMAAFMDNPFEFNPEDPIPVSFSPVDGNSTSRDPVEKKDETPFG

Binder	IC50 [1] [µg/mL]	IC50 [2] [µg/mL]	IC50; p-TrkA level by AlphaLISA in NGF-stimulated NIH3T3-TrkA stable cell line [3] [µg/mL]	EC50 [4] [µg/mL]	EC50 (Mouse-TrKA protein) [µg/mL]	Kd [5] [nM]	koff [5] [s⁻¹]	kon [5] [M⁻¹ s⁻¹]	OD450 [6] [OD450]	EC50 [7] [µg/mL]	EC50 [8] [µg/mL]	IC50 [9] [µg/mL]
23E12 chimeric antibody (antibody, human IgG4 S228P, kappa, F234A L235A, V domains shown, expressed in CHO cells) VH: QVQLQQSGAELVRPGTSVKISCKASGYAFTNYWLGWMKQRPGHGLEWIGDFYPRTGNTFYNENFKGKVTLTADKSSNTAYMQLSSLTSEDSAVYLCARAGTGFDYWGQGTTLTVSS VL: SIVMTQSPKSMSMSVGERVTLSCKASENVGGYVSWYQQKPDQSPKLLIYGASSRHTGVPDRFTGSGSETDFTLTISSVQAEDLAAYHCGQNYIYPFTFGGGTKLEIKR	0.0515	0.426	0.0537	< 1.5	0.0208	0.057	0.000109	1.9e+06	~3	0.0801	0.0443	0.213
21E5 chimeric antibody (antibody, human IgG4 S228P, kappa, F234A L235A, V domains shown, expressed in CHO cells) VH: QVQLQQSGAELMKPGASMKISCKATGYTFSTYWIEWVKQRPGHGLEWIGENLPGRHITNYNEKFKGKATFTADTSSNTAYMQLSSLTSEDSAVYYCARGRGTYYFDYWGQGTPLTVSS VL: DIVMTQAAFSTPVTLGTSASISCRSSQSLLHSNGITYLYWYLQKPGQSPQLLIYQMSNLASGVPDRFSSSGSGTDFTLRISRVEAEDVGVYYCAQNLEFPFTFGSGTKLEIKR		0.547	0.0856	< 1.5	0.0954	0.173	0.000175	1.01e+06	~3		0.0575	0.294
27H3 chimeric antibody (antibody, human IgG4 S228P, kappa, F234A L235A, V domains shown, expressed in CHO cells) VH: QVQLQQSGAELMKPGASVKISCKTTGYRFSSYWIEWVKQRPGHGLEWLGEILPGRGIINYNENFRGKATFTADTSSNTAYVQLSSLTSEDSAVYFCARTDPPYFGVWGAGTTVTVSS VL: QAVVTQESALTTSPGETVTLTCRSSTGAVTISNYANWVQEKPDHLFTGLIGGTNNRPPGVPARFSGSLIGDKAALTITGAQTEDEAIYFCVLWYSNHWVFGGGTKLTVLR		0.369	0.0437	< 1.5		0.178	0.000279	1.57e+06	~3		0.0447	0.11

— patent US20220204630A1 (SUNSHINE LAKE PHARMA, published 2022)
